For test [1], the target named is T1, human PD-L1 expressed on cells (CHO-PD-L1, HCC1954, HCC827) (human, UniProt Q9NZQ7 19-290).
T1 construct: whole, on cells; also called hPD-L1; PD-L1 expressing cells
Description: flow cytometry with human SA, inhibition of PD-1 binding to HCC1954 cells. In general terms: Flow cytometry measures light scatter and fluorescence of single cells or particles in a stream.

The target in test [2] is CD137 on transgenic NF-kB Jurkat reporter cells (Homo sapiens (Human), UniProt Q07011 24-255). Description: cell-based or functional assay.
Test [3] has as its target T2, Fc-tagged human PD-L1 extracellular domain (SinoBiological, cat. 10084-H02H) (human, UniProt Q9NZQ7 19-238).
T2 construct: extracellular domain; also called hPD-L1; not shown: Fc tag of the bought protein
Put plainly: SPR, alanine mutants of 33-03-G02. For orientation: Surface plasmon resonance follows binding to a sensor surface in real time, without labels.

Test [4] addresses T2, Fc-tagged human PD-L1 extracellular …. Description: SPR, captured Fc-PD-L1 ECD, scFv analyte, kinetic.
Test [5] has as its target T1, human PD-L1 expressed on cells …. Put plainly: cell-based or functional assay.
Test [6] has as its target T3, recombinant human IL-23R (custom-made by Trenzyme) (human, UniProt Q5VWK5 24-355).
T3 sequence (looked up): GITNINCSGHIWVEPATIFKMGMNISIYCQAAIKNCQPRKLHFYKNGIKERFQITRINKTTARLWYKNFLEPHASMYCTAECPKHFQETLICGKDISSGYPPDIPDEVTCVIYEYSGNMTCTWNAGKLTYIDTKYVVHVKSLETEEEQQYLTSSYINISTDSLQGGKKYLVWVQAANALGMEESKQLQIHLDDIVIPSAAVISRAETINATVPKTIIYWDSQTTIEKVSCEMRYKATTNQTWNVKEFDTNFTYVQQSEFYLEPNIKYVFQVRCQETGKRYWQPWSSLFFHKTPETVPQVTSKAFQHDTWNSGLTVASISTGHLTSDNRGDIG
Put plainly: SPR, immobilised IL-23R.

Test [7] addresses T4, recombinant human CD3E ECD (SinoBiological, cat. 10977-H08H) (human, UniProt P07766 23-126).
T4 construct: extracellular domain; bought protein; also called CD3s
Description: SPR, immobilised CD3e ECD, two-state model (ka1).

A further test concerns the target T5, mouse serum albumin (mouse, UniProt P07724 25-608).
T5 construct: also called MSA; mouse SA
Description: SPR, immobilised MSA, pH 5.5.

Test [8] has as its target T2, Fc-tagged human PD-L1 extracellular …. Description: SPR, captured Fc-PD-L1 ECD, kinetic.
The target of test [9] is CD3e on Jurkat PD-1 NFAT reporter T cells or on T cells of human PBMCs (human, UniProt P07766 23-207). Put plainly: cell-based or functional assay.
The target of test [10] is T1, human PD-L1 expressed on cells …. Description: flow cytometry, inhibition of biotinylated PD-1 binding to HCC827 cells.
Test [11] concerns the target T2, Fc-tagged human PD-L1 extracellular …. Description: SPR, captured Fc-PD-L1 ECD, steady state.
The target in test [12] is T4, recombinant human CD3E ECD …. Put plainly: SPR, immobilised CD3e ECD, two-state model.
Test [13] deals with T6, recombinant human Her2 ECD (SinoBiological, cat. 10004-HCCH) (human, UniProt P04626 23-652).
T6 construct: extracellular domain; bought protein
Put plainly: SPR, immobilised Her2 ECD.

Test [14] concerns the target T4, recombinant human CD3E ECD …. Put plainly: SPR, immobilised CD3e ECD, two-state model (kd1).
A further test deals with T7, human serum albumin (human, UniProt P02768 25-609).
T7 construct: also called HSA; human SA
Put plainly: SPR, immobilised HSA, pH 5.5.

The target of test [15] is T1, human PD-L1 expressed on cells …. Put plainly: flow cytometry, inhibition of biotinylated PD-1 binding to HCC1954 cells.
The target is the same in test [16]. Put plainly: flow cytometry with human SA, inhibition of PD-1 binding to HCC1954 cells. The source holds these as a separate data set.
Test [17] shares this target. Put plainly: flow cytometry with human SA, inhibition of PD-1 binding to HCC827 cells.

Where a chain is given by its changes, count along the chain named. Names may count otherwise.

T5 sequence (P07724 25-608 limits assumed): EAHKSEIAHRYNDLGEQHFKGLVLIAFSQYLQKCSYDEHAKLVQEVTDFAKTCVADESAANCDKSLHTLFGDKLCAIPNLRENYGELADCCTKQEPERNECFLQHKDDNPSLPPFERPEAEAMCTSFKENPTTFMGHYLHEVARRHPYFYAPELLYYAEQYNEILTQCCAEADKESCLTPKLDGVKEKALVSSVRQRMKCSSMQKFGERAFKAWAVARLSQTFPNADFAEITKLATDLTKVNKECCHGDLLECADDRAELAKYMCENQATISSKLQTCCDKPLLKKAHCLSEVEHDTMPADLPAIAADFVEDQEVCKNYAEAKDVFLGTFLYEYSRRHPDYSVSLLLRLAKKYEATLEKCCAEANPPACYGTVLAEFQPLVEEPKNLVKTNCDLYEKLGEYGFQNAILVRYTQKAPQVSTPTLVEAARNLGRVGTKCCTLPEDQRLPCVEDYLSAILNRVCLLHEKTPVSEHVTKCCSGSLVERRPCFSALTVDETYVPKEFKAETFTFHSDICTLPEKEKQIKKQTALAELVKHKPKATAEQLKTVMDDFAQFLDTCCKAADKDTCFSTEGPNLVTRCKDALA
T4 sequence (P07766 23-126): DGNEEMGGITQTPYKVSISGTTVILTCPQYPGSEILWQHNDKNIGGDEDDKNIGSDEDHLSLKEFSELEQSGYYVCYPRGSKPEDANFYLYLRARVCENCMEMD

B1: PRO1992 (multispecific antibody)
chain 1: DVVMTQSPSSLSASVGDRVTITCQASQIISSRSAWYQQKPGQPPKLLIYQASKLASGVPSRFSGSGSGTDFTLTISSLQPEDFATYYCQCTYIDSNFGAFGTGTKLTVLGGGGGSGGGGSGGGGSGGGGSEVQLVESGGGLVQPGGSLRLSCAASGFSFSSSYWICWVRQAPGKGLEWVGCVFTGDGTTYYASWAKGRFTISRDNSKNTVYLQMNSLRAEDTATYFCARPVSVYYYGMDLWGQGTLVTVSSGGGGSGGGGSDIQMTQSPSSLSASVGDRVTITCKASQDVSIGVAWYQQKPGKAPKLLIYSASYRYTGVPSRFSGSGSGTDFTLTISSLQPEDFATYYCQQYYIYPYTFGCGTKVTVLGGGSGGSDIQMTQSPSSLSASVGDRVTITCQASQSINDYLAWYQQKPGKAPKLLIYKASTLASGVPSRFSGSGSGTDFTLTISSLQPEDFATYYCQAAYIITDIDNVFGTGTKVTVLG
chain 2: DIQMTQSPSSLSASVGDRVTITCQASQSISNRLAWYQQKPGKAPKLLIYSASTLASGVPSRFSGSGSGTDFTLTISSLQPEDFATYYCQSTYYGNDGNAFGCGTKVTVLGGGGGSGGGGSGGGGSGGGGSEVQLVESGGGLVQPGGSLRLSCAASGFSFSANYYPCWVRQAPGKCLEWIGCIYGGSSDITYDANWTKGRFTISRDNSKNTVYLQMNSLRAEDTAVYYCARSAWYSGWGGDLWGQGTLVTVSSGGGGSGGGGSQVQLQESGPGLVKPSETLSLTCKVSGFSFSSGYDMCWIRQPPGKGLEWIGCVVAGSVDITYYASWAKGRVTISVDSSKNQFSLKLSSVTAADTAVYYCARKDAYSDAFNLWGQGTLVTVSSGGGSGGGSEVQLVESGGGLVQPGGSLRLSCAASGFTFTDYTMDWVRQAPGKCLEWVADVNPNSGGSIYNQRFKGRFTLSVDRSKNTLYLQMNSLRAEDTAVYYCARNLGPSFYFDYWGQGTLVTVSS
By IC50 is commonly meant the concentration needed to halve the response being measured. Read a high IC50 as weaker potency. The molecule B1 registered an IC50 in test [1] of 0.592 mg/L. For the same molecule, in [2], the “EC50, NFkB reporter gene assay, HCC827 cells” value turned out to be 0.253 nM and the “EC50, NFkB reporter gene assay, HCC1954 cells” value was 0.0824 nM.

B2: PRO1076 (scFv, V domains shown)
VH: QVQLQESGPGLVKPSETLSLTCKVSGFSFSSGYDMCWIRQPPGKGLEWIGCVVAGSVDITYYASWAKGRVTISVDSSKNQFSLKLSSVTAADTAVYYCARKDAYSDAFNLWGQGTLVTVSS
VL: DIQMTQSPSSLSASVGDRVTITCQASQSINDYLAWYQQKPGKAPKLLIYKASTLASGVPSRFSGSGSGTDFTLTISSLQPEDFATYYCQQAYIITDIDNVFGTGTKVTVLG
notes: also called 33-03-G02 VL-G109A
What is called Kd is the constant that tells how readily two partners part at equilibrium. A word on the koff: it is the rate constant with which the complex falls apart. The kon is the rate constant with which the complex forms. With B2, the “fold reduction of affinity vs the original domain” value in [3] is greater than 100 fold. Also, in test [4], binding was characterised by a dissociation constant (Kd) of 7.52 nM, the koff was 0.0135 s⁻¹ and the kon is 1.8e+06 M⁻¹ s⁻¹.

B3: PRO1494 (scFv, V domains shown)
VH: B2 VH with Y104A
VL: B2 VL with Q90A, A91G
With B3, the “IC50, neutralization of PD-L1 in NF-AT potency assay” value in test [5] came to 36.8 mg/L.

B4: PRO1544 (multispecific antibody)
chain 1: DIQMTQSPSSLSASVGDRVTITCQASQSINDYLAWYQQKPGKAPKLLIYKASTLASGVPSRFSGSGSGTDFTLTISSLQPEDFATYYCQAAYIITDIDNVFGTGTKVTVLGGGGGSGGGGSGGGGSGGGGSQVQLQESGPGLVKPSETLSLTCKVSGFSFSSGYDMCWIRQPPGKGLEWIGCVVAGSVDITYYASWAKGRVTISVDSSKNQFSLKLSSVTAADTAVYYCARKDAYSDAFNLWGQGTLVTVSSGGGGSGGGGSDVVMTQSPSSLSASVGDRVTITCQASQIISSRSAWYQQKPGQPPKLLIYQASKLASGVPSRFSGSGSGTDFTLTISSLQPEDFATYYCQCTYIDSNFGAFGCGTKLTVLGGGSGGSDIQMTQSPSSLSASVGDRVTITCQSSQSVFSNNYLAWFQQKPGQSPKRLIYSASTLASGVPSRFSGSGSGTDFTLTISSLQPEDFATYYCLGSYACSSADCYVFGTGTKVTVLG
chain 2: not shown
Regarding B4, the binding result in [6] was “no binding (tested: 90 nM highest concentration)”. Further, the association rate constant (kon) turned out to be 222000 M⁻¹ s⁻¹ in test [7]; 57500 M⁻¹ s⁻¹ in the test with mouse serum albumin; 4120 M⁻¹ s⁻¹ in test [8]; 157000 M⁻¹ s⁻¹ in test [13]; 139000 M⁻¹ s⁻¹ with human serum albumin. In addition, the Kd with mouse serum albumin was 19.5 nM; in [8], 284 nM; in test [11] it was 809 nM; in test [12] it was 12.7 nM; in [13], 0.354 nM; with human serum albumin, 0.87 nM. For the same molecule, the dissociation rate constant (koff) with mouse serum albumin turned out to be 0.00112 s⁻¹; in [8] it was 0.00117 s⁻¹; in test [13], 5.56e-05 s⁻¹; in test [14] it was 0.00516 s⁻¹; in the test with human serum albumin, 0.000121 s⁻¹. In test [9], the “IC50, NFAT reporter, CHO-PD-L1 (A2 clone) cells” value was found to be 10.5 nM. Moreover, in [9], the “IC50, NFAT reporter, HCC1954 cells” value came out at 2.29 nM. Also, in test [9], the “rel. max. activation vs PRO1497, NFAT reporter, HCC1954 cells” value turned out to be 78%. In addition, the “rel. max. activation vs PRO1497 on HCC1954, NFAT reporter, CHO-PD-L1 (A2 clone) cells” value in [9] worked out at 42%. Besides, the IC50 was determined as 46 mg/L in test [10] and 0.528 mg/L in test [15]. For the same molecule, the KD1 in [12] was determined as 23.2 nM. The kd2 in [12] was found to be 0.0042 s⁻¹.

B5: PRO1814 (multispecific antibody)
chain: DIQMTQSPSSLSASVGDRVTITCQASQSINDYLAWYQQKPGKAPKLLIYKASTLASGVPSRFSGSGSGTDFTLTISSLQPEDFATYYCQAAYIITDIDNVFGTGTKVTVLGGGGGSEVQLVESGGGLVQPGGSLRLSCAASGFTFTDYTMDWVRQAPGKGLEWVADVNPNSGGSIYNQRFKGRFTLSVDRSKNTLYLQMNSLRAEDTAVYYCARNLGPSFYFDYWGQGTLVTVSSGGGGSGGGGSGGGGSGGGGSDIQMTQSPSSLSASVGDRVTITCKASQDVSIGVAWYQQKPGKAPKLLIYSASYRYTGVPSRFSGSGSGTDFTLTISSLQPEDFATYYCQQYYIYPYTFGTGTKVTVLGGGGGSQVQLQESGPGLVKPSETLSLTCKVSGFSFSSGYDMCWIRQPPGKGLEWIGCVVAGSVDITYYASWAKGRVTISVDSSKNQFSLKLSSVTAADTAVYYCARKDAYSDAFNLWGQGTLVTVSSGGGGSGGGGSIQMTQSPSSLSASVGDRVTITCQSSESVYSNNQLSWYQQKPGQPPKLLIYDASDLASGVPSRFSGSGSGTDFTLTISSLQPEDFATYYCAGGFSSSSDTAFGGGTKLTVLGGGGGSGGGGSGGGGSGGGGSEVQLVESGGGLVQPGGSLRLSCAASGFSLSSNAMGWVRQAPGKGLEYIGIISVGGFTYYASWAKGRFTISRDNSKNTVYLQMNSLRAEDTATYFCARDRHGGDSSGAFYLWGQGTLVTVSS
notes: also called PR01814
As for B5, the figures for the IC50 in test [16] and in [17] were 0.0525 mg/L and 53.8 mg/L, respectively.

B6: PRO1853 (multispecific antibody)
chain: B5 chain with A91G, Y472A
In the case of B6, the half-inhibitory concentration (IC50) in test [16] came to 0.0695 mg/L; in test [17], 88.2 mg/L.

B7: PRO1854 (multispecific antibody)
chain: B5 chain with A91G, G160C, T355C, Y472A
For B7, the 50% inhibitory concentration (IC50) in test [16] was found to be 0.0561 mg/L; in [17], 53.5 mg/L.

B8: PRO1852 (multispecific antibody)
chain: B5 chain with G160C, T355C
In the case of B8, the IC50 came to 0.0556 mg/L in test [16] and 16.8 mg/L in [17].

Values taken from US20220411536A1 (NUMAB THERAPEUTICS, published 2022).
